Test system: Escherichia coli TOP10
Assay: shrunken log2 fold change of peptide-encoding DNA abundance (4.5 h post-induction vs induction); higher = less antimicrobial activity (less host growth inhibition)
Settings: time post-induction: 4.5 h; library: site-saturation at positions 5, 18, 19, 20
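Note: peptides expressed intracellularly from a pBAD plasmid library in pooled LB shake-flask culture, induced with 0.3% L-arabinose, DNA abundance read by NGS, three biological replicates, DESeq2 with apeglm shrinkage.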

RRIRHRPPRLPRPRPRPVIHPRP
shrunken log2 fold change: -0.283

RRIRHRPPRLPRPRPRPVINPRP
shrunken log2 fold change: -0.242

RRIRHRPPRLPRPRPRPVIWPRP
shrunken log2 fold change: -0.134

RRIRHRPPRLPRPRPRPVKCPRP
shrunken log2 fold change: -0.00443

RRIRHRPPRLPRPRPRPVLAPRP
shrunken log2 fold change: 0.126

RRIRHRPPRLPRPRPRPVLEPRP
shrunken log2 fold change: 0.338

RRIRHRPPRLPRPRPRPVLPPRP
shrunken log2 fold change: -0.0347

RRIRHRPPRLPRPRPRPVLRPRP
shrunken log2 fold change: -0.0204

RRIRHRPPRLPRPRPRPVMAPRP
shrunken log2 fold change: -0.27

RRIRHRPPRLPRPRPRPVMSPRP
shrunken log2 fold change: -0.0285

RRIRHRPPRLPRPRPRPVMYPRP
shrunken log2 fold change: -1.29

RRIRHRPPRLPRPRPRPVNIPRP
shrunken log2 fold change: -0.459

RRIRHRPPRLPRPRPRPVNSPRP
shrunken log2 fold change: 0.158

RRIRHRPPRLPRPRPRPVNTPRP
shrunken log2 fold change: -0.18

RRIRHRPPRLPRPRPRPVQIPRP
shrunken log2 fold change: -0.0126

RRIRHRPPRLPRPRPRPVSEPRP
shrunken log2 fold change: -0.254

RRIRHRPPRLPRPRPRPVSFPRP
shrunken log2 fold change: 0.00493

RRIRHRPPRLPRPRPRPVSNPRP
shrunken log2 fold change: -0.222

RRIRHRPPRLPRPRPRPVVCPRP
shrunken log2 fold change: -0.184

RRIRHRPPRLPRPRPRPVWFPRP
shrunken log2 fold change: 0.0927

RRIRHRPPRLPRPRPRPVWPPRP
shrunken log2 fold change: 0.217

RRIRHRPPRLPRPRPRPWCIPRP
shrunken log2 fold change: -0.228

RRIRHRPPRLPRPRPRPWDPPRP
shrunken log2 fold change: -0.243

RRIRHRPPRLPRPRPRPWENPRP
shrunken log2 fold change: 0.0621

RRIRHRPPRLPRPRPRPWINPRP
shrunken log2 fold change: -0.616

RRIRHRPPRLPRPRPRPWIQPRP
shrunken log2 fold change: -0.0803

RRIRHRPPRLPRPRPRPWKAPRP
shrunken log2 fold change: 0.00938

RRIRHRPPRLPRPRPRPWLTPRP
shrunken log2 fold change: -0.00695

RRIRHRPPRLPRPRPRPWMPPRP
shrunken log2 fold change: 0.0474

RRIRHRPPRLPRPRPRPWNIPRP
shrunken log2 fold change: -0.246

RRIRHRPPRLPRPRPRPWNRPRP
shrunken log2 fold change: -0.297

RRIRHRPPRLPRPRPRPWPVPRP
shrunken log2 fold change: 0.155

RRIRHRPPRLPRPRPRPWRSPRP
shrunken log2 fold change: -0.0818

RRIRHRPPRLPRPRPRPWRYPRP
shrunken log2 fold change: -0.49

RRIRHRPPRLPRPRPRPWSAPRP
shrunken log2 fold change: -0.547

RRIRHRPPRLPRPRPRPWSIPRP
shrunken log2 fold change: 0.0612

RRIRHRPPRLPRPRPRPWSRPRP
shrunken log2 fold change: 0.0245

RRIRHRPPRLPRPRPRPWVDPRP
shrunken log2 fold change: 0.0471

RRIRHRPPRLPRPRPRPWVRPRP
shrunken log2 fold change: 0.0215

RRIRHRPPRLPRPRPRPWYFPRP
shrunken log2 fold change: -0.813

RRIRHRPPRLPRPRPRPYAHPRP
shrunken log2 fold change: -0.702

RRIRHRPPRLPRPRPRPYCEPRP
shrunken log2 fold change: -0.114

RRIRHRPPRLPRPRPRPYCPPRP
shrunken log2 fold change: -0.0225

RRIRHRPPRLPRPRPRPYEVPRP
shrunken log2 fold change: 0.028

RRIRHRPPRLPRPRPRPYEYPRP
shrunken log2 fold change: -0.4

RRIRHRPPRLPRPRPRPYGEPRP
shrunken log2 fold change: -1.23

RRIRHRPPRLPRPRPRPYHLPRP
shrunken log2 fold change: -0.085

RRIRHRPPRLPRPRPRPYHMPRP
shrunken log2 fold change: -0.0151

RRIRHRPPRLPRPRPRPYHNPRP
shrunken log2 fold change: -0.853

RRIRHRPPRLPRPRPRPYICPRP
shrunken log2 fold change: -0.153

RRIRHRPPRLPRPRPRPYKGPRP
shrunken log2 fold change: -0.33

RRIRHRPPRLPRPRPRPYKSPRP
shrunken log2 fold change: -0.00494

RRIRHRPPRLPRPRPRPYLCPRP
shrunken log2 fold change: -0.0059

RRIRHRPPRLPRPRPRPYLQPRP
shrunken log2 fold change: -0.0639

RRIRHRPPRLPRPRPRPYLSPRP
shrunken log2 fold change: -0.221

RRIRHRPPRLPRPRPRPYLWPRP
shrunken log2 fold change: 0.0116

RRIRHRPPRLPRPRPRPYMHPRP
shrunken log2 fold change: -0.448

RRIRHRPPRLPRPRPRPYMWPRP
shrunken log2 fold change: -1.86

RRIRHRPPRLPRPRPRPYSGPRP
shrunken log2 fold change: -0.151

RRIRHRPPRLPRPRPRPYTLPRP
shrunken log2 fold change: -0.611

— the supplement of paper PMC9112550, “Optimization of the antimicrobial peptide Bac7 by deep mutational scanning” (BMC Biology, 2022)
